Legend:
[1] = molecular target: actin filaments (F-actin) polymerised from rabbit muscle actin (rabbit) (UniProt P68135); test: single-molecule TIRF binding kinetics (dwell times); as a1, in the presence of 200 nM HMM
[2] = molecular target: actin filaments (F-actin) polymerised from rabbit muscle actin (rabbit) (UniProt P68135); test: single-molecule TIRF binding kinetics (dwell times); as a1, in the presence of 200 nM drebrin 1–300
[3] = molecular target: actin filaments (F-actin) polymerised from rabbit muscle actin (rabbit) (UniProt P68135); test: single-molecule TIRF binding kinetics (dwell times); as a1, actin filaments co-polymerized with 5 µM biotin-phalloidin
[4] = molecular target: actin filaments (F-actin) polymerised from rabbit muscle actin (rabbit) (UniProt P68135); test: single-molecule TIRF binding kinetics (dwell times); as a1, with 1 µM phalloidin added after the filaments had been tethered
[5] = molecular target: actin filaments (F-actin) polymerised from rabbit muscle actin (rabbit) (UniProt P68135); test: single-molecule TIRF binding kinetics (dwell times); as a1, with 1 µM jasplakinolide added after the filaments had been tethered
[6] = molecular target: actin filaments (F-actin) polymerised from rabbit muscle actin (rabbit) (UniProt P68135); test: single-molecule TIRF binding kinetics (dwell times); dual colour with 10 nM Atto-488-cofilin and Alexa-555-utrn (0.05–0.1 nM), 450 ms per frame; events far (>30 nm) from a cofilin binding event
[7] = molecular target: actin filaments (F-actin) polymerised from rabbit muscle actin (rabbit) (UniProt P68135); test: single-molecule TIRF binding kinetics (dwell times); dual colour with 10 nM Atto-488-cofilin and Alexa-555-utrn (0.05–0.1 nM), 450 ms per frame; events near (<30 nm) a cofilin binding event; only τ1 fitted
[8] = molecular target: actin filaments (F-actin) polymerised from rabbit muscle actin (rabbit) (UniProt P68135); test: single-molecule TIRF binding kinetics (on-rate); tethered actin filaments; frequency of binding events for a range of concentrations of actin-binding domain, linear regression of frequency against concentration
[9] = molecular target: actin filaments (F-actin) polymerised from rabbit muscle actin (rabbit) (UniProt P68135); test: single-molecule TIRF binding kinetics (dwell times); actin filaments tethered to a PEG/biotin-PEG coverslip by streptavidin and biotin-phalloidin; labelled binding domain in solution at ~0.05–0.1 nM; 25 mM imidazole, 25 mM KCl, 4 mM MgCl2, 1 mM EGTA, 1 mM DTT, pH 7.4, 10 µg/mL beta casein; double exponential fit of the CDF, bleaching corrected

A dwell time τ1 (first timescale) [1] of 0.4 s, a dwell time τ1 (first timescale) [2] of 0.34 s and a dwell time τ1 (first timescale) [3] of 0.41 s were found for “utrophin actin-binding domain Δ-nterm Q33A T36A (domain or fragment)” in this work. For the same substance, the dwell time τ1 (first timescale) [4] was 0.49 s, the dwell time τ1 (first timescale) [5] was 0.47 s and the dwell time τ1 (first timescale) [6] was 0.44 s. The dwell time τ1 (first timescale) [7] was 0.57 s, the kon [8] was 2.1e+06 M⁻¹ s⁻¹ and the average dwell time (τav) [9] was 0.8 s. The dwell time τ1 (first timescale) [9] was 0.42 s and the ratio of the two dwell-time scales (τ2/τ1) [9] was 9.6.

Reference: PMC7688639
